The values below come from publication PMC12468009, “Development of a QCM-D-Based Aptasensor for the Real-Time Detection of β-Lactoglobulin”.

The target of the data set is T1, beta-lactoglobulin (β-LG) (bovine? (cow's milk), UniProt P02754 17-178).
T1 sequence: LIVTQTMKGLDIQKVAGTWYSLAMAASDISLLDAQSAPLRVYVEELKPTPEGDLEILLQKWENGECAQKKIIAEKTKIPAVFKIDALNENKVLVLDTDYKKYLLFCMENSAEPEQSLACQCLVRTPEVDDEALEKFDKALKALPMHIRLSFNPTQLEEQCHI
Put plainly: dot blot; 100 µg β-LG on nitrocellulose, 400 pmol aptamer in PBS, 37 °C; Dot blot: PBS, 37 °C, 1 h, membrane blocked with 5% BSA/0.01% Tween 20; QCM-D: β-LG in PBS pH 3.5, 37 °C, aptamer 0.5 µM in TRIS with 0.1% BSA for immobilization; PBS (pH 7.4 stock) contains CaCl2 and MgCl2. The conditions noted are these: protein: native; tags: none; chain copies: 2; label: biotin; predicted secondary structure only.

B1: Apt 356 (ssDNA)
DNA: GCCTGTTGTGAGCCTCCTAACCTGGTGTGCAAGGTGGACTCTCTTTATCTTGTTGTCAGTCTCATCACCGCATGCTTATTCTTGTCTCCC
modifications: 5'-biotin
With B1, the binding result is on record as “binds”.
